In paper PMC3671127:

Experiments:
[1] = target: HIV-1 Pol polyprotein with a catalytically dead protease (sPol-PR_(D25N)) (HIV-1 (IIIB)); assay: AlphaScreen or HTRF; 33 nM GST-sPol-PR_(D25N) and 33 nM His-MBP-sPol-PR_(D25N) kept constant, CX05045 (raltegravir, DMSO as controls) titrated 1:10 from 100 uM; 25 mM Tris/HCl pH 7.5, 150 mM NaCl, 1 mM dithiothreitol, 1 mM MgCl2, 0.1% BSA, 0.1% Tween 20; overnight at 4°C, then glutathione donor and Ni-chelate acceptor beads 2 h at 23°C
[2] = target: HIV-1 integrase A128T (LEDGIN-resistant), fluorescently labelled (IN_(A128T)-mTFP1 and IN_(A128T)-mVenus) in virions (HIV-1); assay: FRET or BRET; single virus FRET by acceptor photobleaching (TIRF microscopy) on fixed virions with IN-mTFP1 donor and IN-mVenus acceptor; FRET ratio = FD/FDA; virions produced in the presence of CX05045 (5-fold EC50)
[3] = target: HIV-1 integrase A128T (LEDGIN-resistant), fluorescently labelled (IN_(A128T)-mTFP1 and IN_(A128T)-mVenus) in virions (HIV-1); assay: FRET or BRET; single virus FRET by acceptor photobleaching (TIRF microscopy) on fixed virions with IN-mTFP1 donor and IN-mVenus acceptor; FRET ratio = FD/FDA, unity means no FRET; virions produced in the presence of DMSO
[4] = target: HIV-1 integrase, wild type, fluorescently labelled (IN-mTFP1 and IN-mVenus) in virions (HIV-1) (UniProt P12497); assay: FRET or BRET; single virus FRET by acceptor photobleaching (TIRF microscopy) on fixed virions with IN-mTFP1 donor and IN-mVenus acceptor; FRET ratio = FD/FDA; virions produced in the presence of CX05045 (5-fold EC50)
[5] = target: HIV-1 integrase, wild type, fluorescently labelled (IN-mTFP1 and IN-mVenus) in virions (HIV-1) (UniProt P12497); assay: FRET or BRET; single virus FRET by acceptor photobleaching (TIRF microscopy) on fixed virions with IN-mTFP1 donor and IN-mVenus acceptor; FRET ratio = FD/FDA; virions produced in the presence of raltegravir (5-fold EC50)
[6] = target: HIV-1 integrase, wild type, fluorescently labelled (IN-mTFP1 and IN-mVenus) in virions (HIV-1) (UniProt P12497); assay: FRET or BRET; single virus FRET by acceptor photobleaching (TIRF microscopy) on fixed virions with IN-mTFP1 donor and IN-mVenus acceptor; FRET ratio = FD/FDA, unity means no FRET; virions produced in the presence of DMSO

“HIV-1 Pol polyprotein with a catalytically dead protease (sPol-PR_(D25N)) (natural protein)” was tested, and the EC50 of CX05045 for the enhancement of Pol-Pol multimerization [1] was 8.7 nM.

For “HIV-1 integrase A128T (LEDGIN-resistant), fluorescently labelled (IN_(A128T)-mTFP1 and IN_(A128T)-mVenus) in virions (enzyme)”, the mean FRET ratio (CX05045) [2] was 1.23 and the mean FRET ratio (DMSO) [3] was 1.26.

With “HIV-1 integrase, wild type, fluorescently labelled (IN-mTFP1 and IN-mVenus) in virions (from UniProt P12497 1148-1435) (enzyme)” the mean FRET ratio (CX05045) [4] was 1.43, the mean FRET ratio (raltegravir) [5] was 1.22 and the mean FRET ratio (DMSO) [6] was 1.25.
